From publication PMC12107432 (Nucleic Acids Research, 2025) come the findings set out here.

Series [1] has as its target YhaM ortholog of Staphylococcus aureus (SaYhaM) (Staphylococcus aureus). Briefly: SEC. A general note: SEC sorts molecules by how far they enter the pores of the column.
Series [2] deals with the molecule itself. Briefly: mass photometry.
Series [3] concerns the molecule itself. The series is described as follows: mass photometry. This is another data set of the same source.
Series [4] concerns the molecule itself. The series is described as follows: mass photometry. This is another data set of the same source.
Another series has as its target T1, YhaM H193A/D194A (Bacillus subtilis, UniProt O07521 1-314, H193A;D194A).
T1 sequence: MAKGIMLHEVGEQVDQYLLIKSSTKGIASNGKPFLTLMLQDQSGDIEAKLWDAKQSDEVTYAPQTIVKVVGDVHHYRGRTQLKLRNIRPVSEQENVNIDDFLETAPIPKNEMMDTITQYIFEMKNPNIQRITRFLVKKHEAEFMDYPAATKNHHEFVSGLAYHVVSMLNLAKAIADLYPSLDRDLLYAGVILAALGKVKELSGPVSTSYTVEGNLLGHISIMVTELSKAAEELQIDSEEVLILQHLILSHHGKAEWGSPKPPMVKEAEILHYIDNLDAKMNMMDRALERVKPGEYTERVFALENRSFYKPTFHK
The series is described as follows: BLI. (In general: BLI is a label-free optical method that tracks binding on a fibre tip over time.)

In another series the target is T2, YhaM (BsYhaM) (Bacillus subtilis (strain DK1042 / NCIB …, UniProt O07521 1-314)).
T2 sequence: T1 sequence with A193H, A194D
Briefly: BLI.

In a further series the target is T3, YhaM dimers (Bacillus subtilis, UniProt O07521 1-314).
T3 sequence: T1 sequence with A193H, A194D
The series is described as follows: BLI.

Residue numbers refer to the chain shown, from its start. Numbers in names are those of the source. Where “and” joins values, the source holds several entries; their conditions need not be identical. Equal values may be shown once. Read-outs that look alike come from different tables or passages of the source.

Usually stoichiometry N stands for a count of units in the complex or per binding partner. Molecule “YhaM ortholog of Staphylococcus aureus (SaYhaM) (enzyme)” gave a stoichiometry N in series [1] of 6.

B1: YhaM W51A (Bacillus subtilis), OB domain variant (enzyme, UniProt O07521 1-314, looked up)
chain: T1 sequence with W51A, A193H, A194D
Turning to B1, the “stoichiometry N” value in “mass photometry [2]” was found to be 2; in “mass photometry [3]”, 6.

B2: YhaM H193A/D194A (Bacillus subtilis), HD motif variant (enzyme, UniProt O07521 1-314, looked up)
chain: T1 sequence
For B2, the “stoichiometry N” value in the series “mass photometry [4]” was 2; in the series “mass photometry [3]” it was 4 and 6.

B3: YhaM Y76A (Bacillus subtilis), OB domain variant (enzyme, UniProt O07521 1-314, looked up)
chain: T1 sequence with Y76A, A193H, A194D
Consider B3, for which the “stoichiometry N” value in the series “mass photometry [3]” is 6.

For the molecule GTTAATTAAGTTTTAACCTTTAAGCTGTAATAGGGAGTTT (ssDNA) [Bli DNA 40-nt], the binding result in the series with YhaM H193A/D194A and with YhaM (BsYhaM) was “binds” each time.

B4: ssDNA loop (ssDNA)
DNA: TTTTTTTTTTTTTTTTTTTTTTCCCACAACAAGTCCAACGCAAACGGCCACCCCCCCAACAACAATTTTT
Consider B4, for which the binding result in the series with YhaM dimers was “binds”.
